By Kd is commonly meant a measure of binding affinity in units of concentration.

This passage reports Kd results from paper PMC7560960 (Cellular microbiology, 2018).

Test [1] deals with E-cadherin (Homo sapiens) (UniProt P12830). The following applies: cited from earlier work.
For test [2], the target named is T1, recombinant human VE-cad (Asp48-Gln593 fused to human IgG Fc) (human, UniProt P33151 48-593).
T1 sequence (looked up): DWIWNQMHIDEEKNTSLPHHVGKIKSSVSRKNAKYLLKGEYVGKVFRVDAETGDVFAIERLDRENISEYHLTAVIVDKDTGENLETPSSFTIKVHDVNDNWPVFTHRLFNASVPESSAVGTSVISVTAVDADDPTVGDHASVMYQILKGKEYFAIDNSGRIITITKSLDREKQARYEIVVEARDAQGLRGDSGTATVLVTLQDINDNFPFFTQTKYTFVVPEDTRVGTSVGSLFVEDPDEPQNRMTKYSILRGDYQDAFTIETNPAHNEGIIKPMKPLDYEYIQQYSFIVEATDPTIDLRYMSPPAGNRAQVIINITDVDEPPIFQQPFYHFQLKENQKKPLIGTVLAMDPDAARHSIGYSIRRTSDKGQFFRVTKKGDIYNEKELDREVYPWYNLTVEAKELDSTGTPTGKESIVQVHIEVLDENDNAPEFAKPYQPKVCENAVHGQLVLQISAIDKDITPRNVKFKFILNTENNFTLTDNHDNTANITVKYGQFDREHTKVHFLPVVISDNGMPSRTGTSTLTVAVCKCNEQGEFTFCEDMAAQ
Briefly: SPR. Background: SPR reads the build-up and loss of mass on a sensor chip optically.

Test [3] addresses T2, recombinant human E-Cad (Gln23 - Pro621 fused to human IgG Fc) (human, UniProt P12830 23-621).
T2 sequence (looked up): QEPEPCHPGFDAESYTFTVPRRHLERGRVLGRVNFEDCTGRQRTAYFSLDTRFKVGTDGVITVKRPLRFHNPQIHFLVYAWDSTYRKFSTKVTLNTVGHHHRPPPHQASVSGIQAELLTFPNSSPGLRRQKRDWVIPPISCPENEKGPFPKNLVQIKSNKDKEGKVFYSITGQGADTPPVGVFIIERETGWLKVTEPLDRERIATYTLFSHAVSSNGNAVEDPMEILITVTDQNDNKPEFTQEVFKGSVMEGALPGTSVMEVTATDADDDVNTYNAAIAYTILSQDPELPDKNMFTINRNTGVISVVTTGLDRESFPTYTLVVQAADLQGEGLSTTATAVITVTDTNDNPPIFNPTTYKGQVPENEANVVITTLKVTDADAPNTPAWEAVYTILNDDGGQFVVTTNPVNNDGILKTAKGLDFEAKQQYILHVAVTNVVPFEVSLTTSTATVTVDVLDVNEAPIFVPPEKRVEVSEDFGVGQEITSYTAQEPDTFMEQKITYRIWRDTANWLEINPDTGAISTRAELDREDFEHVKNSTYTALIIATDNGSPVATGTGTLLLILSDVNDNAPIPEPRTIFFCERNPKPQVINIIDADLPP
Briefly: SPR.

Sequence of E-cadherin (Homo sapiens) (P12830 155-709): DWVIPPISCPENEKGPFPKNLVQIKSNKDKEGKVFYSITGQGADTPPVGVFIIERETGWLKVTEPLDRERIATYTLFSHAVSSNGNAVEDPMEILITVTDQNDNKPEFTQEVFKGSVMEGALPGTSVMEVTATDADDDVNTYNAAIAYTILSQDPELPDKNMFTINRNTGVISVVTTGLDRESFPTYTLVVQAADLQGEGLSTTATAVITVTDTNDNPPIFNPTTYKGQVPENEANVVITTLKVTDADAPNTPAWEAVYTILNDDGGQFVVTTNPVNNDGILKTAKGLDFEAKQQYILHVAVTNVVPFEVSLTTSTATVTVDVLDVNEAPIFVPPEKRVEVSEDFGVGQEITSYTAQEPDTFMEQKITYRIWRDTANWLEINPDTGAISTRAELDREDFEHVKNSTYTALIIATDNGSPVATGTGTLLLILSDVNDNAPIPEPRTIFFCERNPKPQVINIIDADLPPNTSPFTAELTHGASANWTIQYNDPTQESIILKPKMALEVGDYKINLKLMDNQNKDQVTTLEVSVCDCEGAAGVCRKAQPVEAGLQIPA

Consider InlA (from UniProt P0DJM0), for which the Kd in test [1] is 8 µM.

B1: recombinant LIC10831, histidine tag removed (natural protein)
chain: EEPGTYRDLTKALQNPLEVRVLDLSRQELKTLPIEIGKLKNLQRLYLHYNQLTVLPQEIEQLKNLQLLYLRSNRLTTLPKEIEQLKNLQVLDLGSNQLTVLPQEIEQLKNLQLLYLHSNRLTTLSKDIEQLQNLKSLDLSNNQLTTLPNEIEQLKNLKSLYLSENQFATFPKEIGQLQNLKVLFLNNNQITILPNEIAKLKKLQYLYLSDNQLITLPKEIEQLKNLQTLDLSYNQLTILPKEVGQLENLQTLDLRNNQLKTLPKEIEQLKNLQTLFLSNNQLTILPQEIGKLKNLLWLSLVYNQLTTLPNEIEQLKNLQTLYLNNNQFSSQEKKRIRKLLPKCQIYFD
For B1, the figures for the Kd in test [2] and in test [3] were 5.8 µM and 2.3 µM, respectively.
